Tests used:
[1] = biological target: ED-B fibronectin antigen protein (recombinant), bound to CNBr activated sepharose 4B (UniProt P02751); test: ED-B sepharose column, % of total radioactivity bound; Study A; trolox 5 mg/mL; day 1
[2] = biological target: ED-B fibronectin antigen protein (recombinant), bound to CNBr activated sepharose 4B (UniProt P02751); test: ED-B sepharose column, % of total radioactivity bound; Study A; maltose 5 mg/mL; day 0
[3] = biological target: ED-B fibronectin antigen protein (recombinant), bound to CNBr activated sepharose 4B (UniProt P02751); test: ED-B sepharose column, % of total radioactivity bound; Study A; maltose 5 mg/mL; day 1
[4] = biological target: ED-B fibronectin antigen protein (recombinant), bound to CNBr activated sepharose 4B (UniProt P02751); test: ED-B sepharose column, % of total radioactivity bound; Study A; maltose 5 mg/mL; day 5
[5] = biological target: ED-B fibronectin antigen protein (recombinant), bound to CNBr activated sepharose 4B (UniProt P02751); test: ED-B sepharose column, % of total radioactivity bound; Study A; maltose 5 mg/mL; day 7
[6] = biological target: ED-B fibronectin antigen protein (recombinant), bound to CNBr activated sepharose 4B (UniProt P02751); test: ED-B sepharose column, % of total radioactivity bound; Study A; maltose 10 mg/mL; day 1
[7] = biological target: ED-B fibronectin antigen protein (recombinant), bound to CNBr activated sepharose 4B (UniProt P02751); test: ED-B sepharose column, % of total radioactivity bound; Study A; maltose 10 mg/mL; day 7
[8] = biological target: ED-B fibronectin antigen protein (recombinant), bound to CNBr activated sepharose 4B (UniProt P02751); test: ED-B sepharose column, % of total radioactivity bound; Study A; maltose 50 mg/mL; day 0
[9] = biological target: ED-B fibronectin antigen protein (recombinant), bound to CNBr activated sepharose 4B (UniProt P02751); test: ED-B sepharose column, % of total radioactivity bound; Study A; inositol 5 mg/mL; day 3
[10] = biological target: ED-B fibronectin antigen protein (recombinant), bound to CNBr activated sepharose 4B (UniProt P02751); test: ED-B sepharose column, % of total radioactivity bound; Study A; inositol 10 mg/mL; day 5
[11] = biological target: ED-B fibronectin antigen protein (recombinant), bound to CNBr activated sepharose 4B (UniProt P02751); test: ED-B sepharose column, % of total radioactivity bound; Study A; inositol 25 mg/mL; day 5
[12] = biological target: ED-B fibronectin antigen protein (recombinant), bound to CNBr activated sepharose 4B (UniProt P02751); test: ED-B sepharose column, % of total radioactivity bound; Study A; inositol 50 mg/mL; day 1
[13] = biological target: ED-B fibronectin antigen protein (recombinant), bound to CNBr activated sepharose 4B (UniProt P02751); test: ED-B sepharose column, % of total radioactivity bound; Study A; inositol 50 mg/mL; day 3
[14] = biological target: ED-B fibronectin antigen protein (recombinant), bound to CNBr activated sepharose 4B (UniProt P02751); test: ED-B sepharose column, % of total radioactivity bound; Study A; methionine 5 mg/mL; day 0
[15] = biological target: ED-B fibronectin antigen protein (recombinant), bound to CNBr activated sepharose 4B (UniProt P02751); test: ED-B sepharose column, % of total radioactivity bound; Study A; methionine 5 mg/mL; day 3
[16] = biological target: ED-B fibronectin antigen protein (recombinant), bound to CNBr activated sepharose 4B (UniProt P02751); test: ED-B sepharose column, % of total radioactivity bound; Study B3; inositol 10 mg/mL; day 0
[17] = biological target: ED-B fibronectin antigen protein (recombinant), bound to CNBr activated sepharose 4B (UniProt P02751); test: ED-B sepharose column, % of total radioactivity bound; Study B3; inositol 10 mg/mL; day 7
[18] = biological target: ED-B fibronectin antigen protein (recombinant), bound to CNBr activated sepharose 4B (UniProt P02751); test: ED-B sepharose column, % of total radioactivity bound; Study B3; ascorbic acid 25 mg/mL; day 3
[19] = biological target: ED-B fibronectin antigen protein (recombinant), bound to CNBr activated sepharose 4B (UniProt P02751); test: ED-B sepharose column, % of total radioactivity bound; Study B3; ascorbic acid 25 mg/mL; day 5
[20] = biological target: ED-B fibronectin antigen protein (recombinant), bound to CNBr activated sepharose 4B (UniProt P02751); test: ED-B sepharose column, % of total radioactivity bound; Study A; sodium thiosulfate 5 mg/mL; day 3
[21] = biological target: ED-B fibronectin antigen protein (recombinant), bound to CNBr activated sepharose 4B (UniProt P02751); test: ED-B sepharose column, % of total radioactivity bound; Study A; sodium thiosulfate 25 mg/mL; day 0
[22] = biological target: ED-B fibronectin antigen protein (recombinant), bound to CNBr activated sepharose 4B (UniProt P02751); test: ED-B sepharose column, % of total radioactivity bound; Study A; sodium thiosulfate 50 mg/mL; day 0
[23] = biological target: ED-B fibronectin antigen protein (recombinant), bound to CNBr activated sepharose 4B (UniProt P02751); test: ED-B sepharose column, % of total radioactivity bound; Study A; sodium thiosulfate 50 mg/mL; day 3
[24] = biological target: ED-B fibronectin antigen protein (recombinant), bound to CNBr activated sepharose 4B (UniProt P02751); test: ED-B sepharose column, % of total radioactivity bound; Study A; sodium thiosulfate 50 mg/mL; day 5
[25] = biological target: ED-B fibronectin antigen protein (recombinant), bound to CNBr activated sepharose 4B (UniProt P02751); test: ED-B sepharose column, % of total radioactivity bound; Study A; sodium thiosulfate 50 mg/mL; day 7
[26] = biological target: ED-B fibronectin antigen protein (recombinant), bound to CNBr activated sepharose 4B (UniProt P02751); test: ED-B sepharose column, % of total radioactivity bound; Study B3; no-excipient control (PBS); day 0
[27] = biological target: ED-B fibronectin antigen protein (recombinant), bound to CNBr activated sepharose 4B (UniProt P02751); test: ED-B sepharose column, % of total radioactivity bound; Study B3; no-excipient control (PBS); day 7
[28] = biological target: ED-B fibronectin antigen protein (recombinant), bound to CNBr activated sepharose 4B (UniProt P02751); test: ED-B sepharose column, % of total radioactivity bound; Study A; no-excipient control (saline); day 7

UniProt P02751, sequence (P02751 1266-1356 limits assumed): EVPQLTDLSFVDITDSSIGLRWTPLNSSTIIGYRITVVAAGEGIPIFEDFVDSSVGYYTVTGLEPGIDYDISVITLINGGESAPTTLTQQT
131I L19-SIP (radioiodinated L19 SIP homodimer), sequence (chain): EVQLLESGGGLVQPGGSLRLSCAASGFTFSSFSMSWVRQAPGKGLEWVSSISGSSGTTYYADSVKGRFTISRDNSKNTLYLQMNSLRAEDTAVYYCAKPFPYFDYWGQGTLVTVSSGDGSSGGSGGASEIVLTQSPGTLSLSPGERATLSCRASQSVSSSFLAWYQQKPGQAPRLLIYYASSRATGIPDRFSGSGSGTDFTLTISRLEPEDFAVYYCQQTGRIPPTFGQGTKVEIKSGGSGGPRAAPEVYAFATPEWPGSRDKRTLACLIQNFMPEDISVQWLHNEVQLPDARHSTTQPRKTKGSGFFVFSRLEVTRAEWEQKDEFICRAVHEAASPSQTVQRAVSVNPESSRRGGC
131I L19-SIP (radioiodinated L19 SIP homodimer), sequence (chain): as above

131I L19-SIP (radioiodinated L19 SIP homodimer)
Immunoreactivity (%) [1]: 84.8% | Immunoreactivity (%) [2]: 89.1% | Immunoreactivity (%) [3]: 84.4% | Immunoreactivity (%) [4]: 57% | Immunoreactivity (%) [5]: 50% | Immunoreactivity (%) [6]: 85.4% | Immunoreactivity (%) [7]: 53.7% | Immunoreactivity (%) [8]: 89.7% | Immunoreactivity (%) [9]: 64.6% | Immunoreactivity (%) [10]: 58.9% | Immunoreactivity (%) [11]: 59.9% | Immunoreactivity (%) [12]: 89.3% | Immunoreactivity (%) [13]: 71.6% | Immunoreactivity (%) [14]: 96.7% | Immunoreactivity (%) [15]: 72.9% | Immunoreactivity (IR) (%) [16]: 59.5% | Immunoreactivity (IR) (%) [17]: 61.9% | Immunoreactivity (IR) (%) [18]: 78.7% | Immunoreactivity (IR) (%) [19]: 64.7% | Immunoreactivity (%) [20]: 83.5% | Immunoreactivity (%) [21]: 96.4% | Immunoreactivity (%) [22]: 95.8% | Immunoreactivity (%) [23]: 91.7% | Immunoreactivity (%) [24]: 91.5% | Immunoreactivity (%) [25]: 88.2% | Immunoreactivity (IR) (%) [26]: 74.6% | Immunoreactivity (IR) (%) [27]: 28.2% | Immunoreactivity (%) [28]: 43.7%

From patent WO2011147762A2
